Results: patent US20210230599, “STEM-LOOP COMPOSITIONS AND METHODS FOR INHIBITING INTERLEUKIN-8” (VITRISA THERAPEUTICS, INC., published 2021)

B1: Aptamer 269 (ssRNA)
RNA: GGCGACGGUAGAUUAUGGGCAGUGUGACCGCGCC
modifications: 2'-OMe A/C/U, 2'-OMe G in stems S1, S2 and loop L2, 2'-F at other G, 5' C6NH2, 3' idT

target: T1, Interleukin-8 (IL8, CXCL8), C-terminal His-tagged (Homo sapiens, UniProt P10145 SEQ:1-72); assay: competition; competition TR-FRET; details: tags: C-terminal His (Sino Biological); stem-loop
Method: To better understand the sequence requirements and to confirm the stem structures of members of the Aptamer 3 family as determined from sequence covariation analysis from both the primary and secondary (degenerate) selections, a series of variants which included mutations and deletions to the predicted stems were synthesized and screened (Table 24). […] Briefly, 2-fold dilutions of thermally equilibrated aptamers were made in TR-FRET Buffer (50 mM MOPS, pH 7.4, 125 mM NaCl, 5 mM KCl, 50 μM CHAPS, 0.1 mg/mL BSA, 1 mM CaCl₂, and 1 mM MgCl₂). 5 μL of aptamer or control solution was added to 5 μl mix of 10 nM C-terminal His-tagged-IL8, 60 nM ALEXA FLUOR® 647-labeled Aptamer, and 5 nM anti-His-Eu (Perkin Elmer) in a black wall low volume 384 well plate (Greiner). For control, 5 μl of 1000-fold excess of unlabeled parent aptamer or 5 μl TR-FRET buffer alone was added to the mix of ALEXA FLUOR® 647-labeled aptamer, His-IL8, and anti-His-Eu. The plate was covered with a plate seal and subsequently incubated in the dark for 1 hour at room temperature. The plate was read on a Biotek CYTATION™ 5 plate reader. Samples were excited at 330 nm and fluorescent values were collected at 665 nm. Data analysis was performed by subtracting the background value and plotting as percent inhibition, normalized to baseline in the absence of competitor. The values were fit by [Inhibitor] vs. response—Variable slope (four parameters) using GraphPad Prism Version 7.0 and then normalized to aptamer control to obtain an IC₅₀ relative to parent aptamer. Data is presented as log values of relative IC₅₀.
(§1) Like L1, most of L2 was also found to be 100% conserved in the degenerate selection, except residue U20, which was ˜92% conserved (FIG. 31). To test sequence requirements of L2, variants of Aptamer 32 were made, where each position of L2 was individually replaced with the other 3 bases and tested for binding in the competition TR-FRET assay.

Which binding signal does the source give for CGGUGGGAAAUGUGAUAUGGGUUGCCG (ssRNA, 2'-F G; 2'-OMe A,C,U; 5' C6NH2; 3' idT) [Aptamer 176] here?
Its binding signal is > 10 fold worse than Aptamer 8.

CGGUGGGAAAUGUUAGAUGGGUUGCCG (ssRNA, 2'-F G; 2'-OMe A,C,U; 5' C6NH2; 3' idT) [Aptamer 170] was tested. Which binding signal did it give?
The binding signal was > 10 fold worse than Aptamer 8.

How did the binding signal turn out when CGGUGGGAAAUGUGAAAUGGGUUGCCG (ssRNA, 2'-F G; 2'-OMe A,C,U; 5' C6NH2; 3' idT) [Aptamer 175] was run?
Its binding signal is > 10 fold worse than Aptamer 8.

How did the binding signal turn out when CGGUGGGAAAUGUGAGUUGGGUUGCCG (ssRNA, 2'-F G; 2'-OMe A,C,U; 5' C6NH2; 3' idT) [Aptamer 179] was run?
Its binding signal is > 10 fold worse than Aptamer 8.

For CGGUGGGAAAUGUGUGAUGGGUUGCCG (ssRNA, 2'-F G; 2'-OMe A,C,U; 5' C6NH2; 3' idT) [Aptamer 173], which binding signal is on record?
The binding signal was > 10 fold worse than Aptamer 8.

How did the binding signal turn out when CGGUGGGAAAUGUAAGAUGGGUUGCCG (ssRNA, 2'-F G; 2'-OMe A,C,U; 5' C6NH2; 3' idT) [Aptamer 169] was run?
Its binding signal is > 10 fold worse than Aptamer 8.

target: T1, Interleukin-8 (IL8, CXCL8), C-terminal …; assay: competition; competition TR-FRET; details: tags: C-terminal 6xHis (Sino Biological)
Method: (§2) Activity of each of these variants were tested using a time resolved competition TR-FRET assay in which the labeled parent Aptamer 3 was competed with increasing concentrations of unlabeled variants for binding to IL8 (FIG. 14). Briefly, 2-fold dilutions of thermally equilibrated aptamers were made in TR-FRET Buffer (50 mM MOPS, pH 7.4, 125 mM NaCl, 5 mM KCl, 50 μM CHAPS, 0.1 mg/mL BSA, 1 mM CaCl₂, and 1 mM MgCl₂). 5 μL of aptamer or control solution was added to 5 μl mix of 10 nM C-terminal His-tagged-IL8, 60 nM ALEXA FLUOR® 647-labeled Aptamer, and 5 nM anti-His-Eu (Perkin Elmer) in a black wall low volume 384 well plate (Greiner). For control, 5 μl of 1000-fold excess of unlabeled parent aptamer or 5 μl TR-FRET buffer alone was added to the mix of ALEXA FLUOR® 647-labeled aptamer, His-IL8, and anti-His-Eu. The plate was covered with a plate seal and subsequently incubated in the dark for 1 hour at room temperature. The plate was read on a Biotek CYTATION™ 5 plate reader. Samples were excited at 330 nm and fluorescent values were collected at 665 nm. Data analysis was performed by subtracting the background value and plotting as percent inhibition, normalized to baseline in the absence of competitor. The values were fit by [Inhibitor] vs. response—Variable slope (four parameters) using GraphPad Prism Version 7.0 and then normalized to aptamer control to obtain an IC₅₀ relative to parent aptamer. Data is presented as log values of relative IC₅₀.
Variants of Aptamers 94, 99, and 100 were synthesized with an optimized stem S1 and G18 was also replaced with a Sp3 spacer to see if further improvements could be made to these molecules (Table 30 and FIG. 20).

Does GCGACGGUAGAUUAUGGGAAGUGUGACCGCGC (ssRNA, 2'-F G, 2'-OMe A/C/U, 5' C6NH2, 3' idT) [Aptamer 152] bind?
Result: binds

Does GGCGACGGUAGAUUAUGGGAAGUGUGACCGCGCC (ssRNA, 2'-F G, 2'-OMe A/C/U, 5' C6NH2, 3' idT) [Aptamer 151] bind?
Result: binds

Does GAUGACGGUAGAUUAUGGGCAGUGUGACCGCAUC (ssRNA, 2'-F G, 2'-OMe A/C/U, 5' C6NH2, 3' idT) [Aptamer 146] bind?
Result: binds

Does GAUGACGGUAGAUUUCGGGUAGUGUGACCGCAUC (ssRNA, 2'-F G, 2'-OMe A/C/U, 5' C6NH2, 3' idT) [Aptamer 142] bind?
Result: binds

Does GAUGACGGUAGAUUAUGGGAAGUGUGACCGCAUC (ssRNA, 2'-F G, 2'-OMe A/C/U, 5' C6NH2, 3' idT) [Aptamer 150] bind?
Result: binds

target: T1, Interleukin-8 (IL8, CXCL8), C-terminal …; assay: TR-FRET, 500 pM IL8, protein-limited; estimated about 20 pM; details: tags: C-terminal 6xHis (Sino Biological); label: Alexa Fluor 647; stem-loop
Method: Under these assay conditions, the ability to measure the affinity accurately is limited by the input IL8 protein concentration, and the apparent Kd under these protein-limiting conditions was determined to be 8 nM.

For GGCGACGGUAGAUUAUGGGCAGUGUGACCGCGCC (ssRNA, 2'-F G, 2'-OMe A/C/U, 5' C6NH2, 3' idT) [Aptamer 147], which Kd is on record?
Its Kd is 0.11 nM.

Which Kd does the source give for B1 here?
Its Kd is 0.126 nM.

target: T1, Interleukin-8 (IL8, CXCL8), C-terminal …; assay: competition; competition TR-FRET; L2 mutant; details: tags: C-terminal 6xHis (Sino Biological)
Method: as §2, §1

Which binding signal does the source give for CGGUGGGAAAUGUGAGGUGGGUUGCCG (ssRNA, 2'-F G, 2'-OMe A/C/U, 5' C6NH2, 3' idT) [Aptamer 178] here?
The binding signal was > 10 fold worse than Aptamer 8.

For CGGUGGGAAAUGUGGGAUGGGUUGCCG (ssRNA, 2'-F G, 2'-OMe A/C/U, 5' C6NH2, 3' idT) [Aptamer 172], which binding signal is on record?
The binding signal was > 10 fold worse than Aptamer 8.

Which binding signal does the source give for CGGUGGGAAAUGUGACAUGGGUUGCCG (ssRNA, 2'-F G, 2'-OMe A/C/U, 5' C6NH2, 3' idT) [Aptamer 174] here?
The binding signal was > 10 fold worse than Aptamer 8.

For CGGUGGGAAAUGUGAGAGGGGUUGCCG (ssRNA, 2'-F G, 2'-OMe A/C/U, 5' C6NH2, 3' idT) [Aptamer 180], which binding signal is on record?
The binding signal was > 10 fold worse than Aptamer 8.

For CGGUGGGAAAUGUGCGAUGGGUUGCCG (ssRNA, 2'-F G, 2'-OMe A/C/U, 5' C6NH2, 3' idT) [Aptamer 171], which binding signal is on record?
Its binding signal is > 10 fold worse than Aptamer 8.

Which binding signal does the source give for CGGUGGGAAAUGUCAGAUGGGUUGCCG (ssRNA, 2'-F G, 2'-OMe A/C/U, 5' C6NH2, 3' idT) [Aptamer 168] here?
The binding signal was > 10 fold worse than Aptamer 8.

target: T1, Interleukin-8 (IL8, CXCL8), C-terminal …; assay: TR-FRET; details: tags: C-terminal 6xHis (Sino Biological); label: Alexa Fluor 647
Method: (§3) Aptamers were synthesized and labeled with ALEXA FLUOR® 647, and binding to IL8 was quantified by Time-Resolved Fluorescence Resonance Energy Transfer (TR-FRET). Briefly, 2-fold dilutions of thermally equilibrated aptamers were made in TR-FRET Buffer (50 mM MOPS, pH 7.4, 125 mM NaCl, 5 mM KCl, 50 μM CHAPS, 0.1 mg/mL BSA, 1 mM CaCl₂ and 1 mM MgCl₂). […] of aptamer or control solution was added to 10 μL of 15 nM C-His-tagged-IL8 (Sino Biological) in a black wall half-area plate (Corning). In the same plate, 10 μl of aptamer solution was added to 10 μl of TR-FRET buffer alone to use for background subtraction. 10 μl of 15 nM anti-His-Eu (Perkin Elmer) was added to each well, the plate was covered with a plate seal and subsequently incubated in the dark for 1 hour at room temperature. The plate was read on a Biotek CYTATION™ 5 plate reader. Samples were excited at 330 nm and fluorescent values were collected at 665 nm. […] Apparent Kd values obtained for the fits are calculated as the concentration of half-maximal binding and shown in Table 10, and fit curves as FIG. 6. […] It is also possible that differences may arise due to TR-FRET being a homogenous solution binding assay, while bead binding has immobilized ligand and is non-homogenous, so bound aptamers may dissociate during analysis resulting in higher calculated Kd values.

UCAGUUGCGGCCCCUGAUACCGAUUUGCCGCCCGGU (ssRNA, 2'-F G, 2'-OMe A/C/U, 5' C6NH2, 3' idT) [Aptamer 15] was tested. Which Kd did it give?
The Kd was 22 nM.

UGGAUGACAUUCGGGGGCACCAAUCAUCGUCUGCU (ssRNA, 2'-F G, 2'-OMe A/C/U, 5' C6NH2, 3' idT) [Aptamer 18] was tested. Which Kd did it give?
Its Kd is 13 nM.

target: T1, Interleukin-8 (IL8, CXCL8), C-terminal …; assay: competition; competition TR-FRET; details: tags: C-terminal 6xHis (Sino Biological); remark: another data set of the same source
Method: To better understand the sequence requirements and to confirm the stem structures of members of the Aptamer 3 family as determined from sequence covariation analysis from both the primary and secondary (degenerate) selections, a series of variants which included mutations and deletions to the predicted stems were synthesized and screened (Table 24). Activity of each of these variants were tested using a time resolved competition TR-FRET assay in which the labeled parent Aptamer 3 was competed with increasing concentrations of unlabeled variants for binding to IL8 (FIG. 14). Briefly, 2-fold dilutions of thermally equilibrated aptamers were made in TR-FRET Buffer (50 mM MOPS, pH 7.4, 125 mM NaCl, 5 mM KCl, 50 μM CHAPS, 0.1 mg/mL BSA, 1 mM CaCl₂, and 1 mM MgCl₂). 5 μL of aptamer or control solution was added to 5 μl mix of 10 nM C-terminal His-tagged-IL8, 60 nM ALEXA FLUOR® 647-labeled Aptamer, and 5 nM anti-His-Eu (Perkin Elmer) in a black wall low volume 384 well plate (Greiner). For control, 5 μl of 1000-fold excess of unlabeled parent aptamer or 5 μl TR-FRET buffer alone was added to the mix of ALEXA FLUOR® 647-labeled aptamer, His-IL8, and anti-His-Eu. The plate was covered with a plate seal and subsequently incubated in the dark for 1 hour at room temperature. The plate was read on a Biotek CYTATION™ 5 plate reader. Samples were excited at 330 nm and fluorescent values were collected at 665 nm. Data analysis was performed by subtracting the background value and plotting as percent inhibition, normalized to baseline in the absence of competitor. The values were fit by [Inhibitor] vs. response—Variable slope (four parameters) using GraphPad Prism Version 7.0 and then normalized to aptamer control to obtain an IC₅₀ relative to parent aptamer. Data is presented as log values of relative IC₅₀.

How did the binding signal turn out when GCGACGGCAGAUUACGGGUAGAGUGGCCGCGC (ssRNA, 2'-F G, 2'-OMe A/C/U, 5' C6NH2, 3' idT) [Aptamer 43] was run?
The binding signal was > 10 fold worse than Aptamer 3.

target: T1, Interleukin-8 (IL8, CXCL8), C-terminal …; assay: TR-FRET; bead flow 13 nM; details: tags: C-terminal 6xHis (Sino Biological); label: Alexa Fluor 647
Method: as §3

UGCGGCCUCCGUUGACUGUUGUAAUGCCGGGACAGU (ssRNA, 2'-F G, 2'-OMe A/C/U, 5' C6NH2, 3' idT) [Aptamer 14] was tested. Which Kd did it give?
The Kd was 6 nM.

For UUAGCCCUGCCAUUGGGGCAUACUUUGGCCGCACU (ssRNA, 2'-F G, 2'-OMe A/C/U, 5' C6NH2, 3' idT) [Aptamer 23], which Kd is on record?
The Kd was 12 nM.
